Laboratory results published in patent US20240108738A1 (Bicycle, published 2024).
Numbered stars: 1 amine (or outer) side, 2 acyl side, 3 side chain; on linkers, the order of the positions; unused ones are H or OH. Bridge positions count the residues as written; N and C are the ends. Square brackets hold non-standard residues; d marks the D form. Primed or numbered codes have the meaning given here. Ends that are not written are not given here. * marks the point of attachment. TBMT = 2,4,6-tris(bromomethyl)-s-triazine, C(c1nc(C[*:2])nc(C[*:3])n1)[*:1]; TBMT″ = 2,4,6-tris(bromomethyl)-s-triazine, scaffold on three Cys; TATA = O=C(CC[*:1])N1CN(C(=O)CC[*:2])CN(C(=O)CC[*:3])C1; Biotin = O=C1N[C@H]2[C@H](CS[C@H]2CCCCC(=O)*)N1; Phe(4-CF3) = N[C@@H](Cc1ccc(C(F)(F)F)cc1)C(=O)O; Phe(4-CN) = N#Cc1ccc(C[C@H](N)C(=O)O)cc1; Phe(4-Cl) = N[C@@H](Cc1ccc(Cl)cc1)C(=O)O; Cba = N[C@@H](CC1CCC1)C(=O)O; Pent4ynoyl = C#CCCC(=O)*; Sar = CNCC(=O)O

B1: BCY16511 (peptide)
peptide: ACVGLXELGPCSDLCA
modifications: CiVGL[Nle]ELGPCiiSDLCiii
notes: scaffold TBMT
B2: BCY16165 (peptide)
peptide: ACVGLLELGPCSDLCAK(Pent4ynoyl)-NH2
modifications: linker 2-11-15 via TBMT (inferred)
notes: scaffold TBMT
B3: BCY20388 (peptide)
peptide: ACRWHFXEPCGAWCA
modifications: CiRWHF[HSer]EPCiiGAWCiii
notes: scaffold TBMT
B4: BCY16501 (peptide)
peptide: ACVGXEELGPCSDLCA
modifications: CiVG[tBuAla]EELGPCiiSDLCiii
notes: scaffold TBMT
B5: BCY20394 (peptide)
peptide: ACRWYFSEXCAAWCA
modifications: CiRWYFSE[Aze]Cii[dA]AWCiii
notes: scaffold TBMT
B6: BCY20379 (peptide)
peptide: ACRWXFSEPCGAWCA
modifications: CiRW[4FPhe]FSEPCiiGAWCiii
notes: scaffold TBMT
B7: BCY12622 (peptide)
peptide: ACPPEVWCHPLDCA[Sar][Sar][Sar][Sar][Sar][Sar]K(Biotin)-NH2
modifications: linker 2-8-13 via TATA; N-terminus assumed
SMILES: CC(C)C[C@@H]1NC(=O)[C@@H]2CCCN2C(=O)[C@H](Cc2c[nH]cn2)NC(=O)[C@@H]2CSCCC(=O)N3CN(CN(C3)C(=O)CCSC[C@H](NC(=O)[C@H](C)N)C(=O)N3CCC[C@H]3C(=O)N3CCC[C@H]3C(=O)N[C@@H](CCC(=O)O)C(=O)N[C@@H](C(C)C)C(=O)N[C@@H](Cc3c[nH]c4ccccc34)C(=O)N2)C(=O)CCSC[C@@H](C(=O)N[C@@H](C)C(=O)N(C)CC(=O)N(C)CC(=O)N(C)CC(=O)N(C)CC(=O)N(C)CC(=O)N(C)CC(=O)N[C@@H](CCCCNC(=O)CCCC[C@@H]2SC[C@@H]3NC(=O)N[C@@H]32)C(N)=O)NC(=O)[C@H](CC(=O)O)NC1=O
notes: scaffold TATA
B8: BCY19050 (peptide)
peptide: ACRXSVEDPCGAWCA
modifications: CiR[6ClTrp]SVEDPCiiGAWCiii
notes: scaffold TBMT
B9: BCY16509 (peptide)
peptide: ACVGL[Cba]ELGPCSDLCA-NH2
modifications: linker 2-11-15 via TBMT″
notes: scaffold TBMT
B10: BCY16508 (peptide)
peptide: ACVGLXELGPCSDLCA
modifications: CiVGL[tBuAla]ELGPCiiSDLCiii
notes: scaffold TBMT
B11: BCY19046 (peptide)
peptide: ACRXSVEDPCGAWCA
modifications: CiR[6MeTrp]SVEDPCiiGAWCiii
notes: scaffold TBMT
B12: BCY16132 (peptide)
peptide: ACY[Cba]PDYLC[dA]DEYCA-NH2
modifications: linker 2-9-14 via TATA; N-terminus assumed
SMILES: CC(C)C[C@@H]1NC(=O)[C@H](Cc2ccc(O)cc2)NC(=O)[C@H](CC(=O)O)NC(=O)[C@@H]2CCCN2C(=O)[C@H](CC2CCC2)NC(=O)[C@H](Cc2ccc(O)cc2)NC(=O)[C@@H](NC(=O)[C@H](C)N)CSCCC(=O)N2CN3CN(C2)C(=O)CCSC[C@H](NC1=O)C(=O)N[C@H](C)C(=O)N[C@@H](CC(=O)O)C(=O)N[C@@H](CCC(=O)O)C(=O)N[C@@H](Cc1ccc(O)cc1)C(=O)N[C@H](C(=O)N[C@@H](C)C(N)=O)CSCCC3=O
notes: scaffold TATA
B13: BCY16144 (peptide)
peptide: ACYLPD[Phe(4-Cl)]LCGDEYCA-NH2
modifications: linker 2-9-14 via TATA; N-terminus assumed
SMILES: CC(C)C[C@@H]1NC(=O)[C@H](Cc2ccc(Cl)cc2)NC(=O)[C@H](CC(=O)O)NC(=O)[C@@H]2CCCN2C(=O)[C@H](CC(C)C)NC(=O)[C@H](Cc2ccc(O)cc2)NC(=O)[C@@H](NC(=O)[C@H](C)N)CSCCC(=O)N2CN3CN(C2)C(=O)CCSC[C@@H](C(=O)N[C@@H](C)C(N)=O)NC(=O)[C@H](Cc2ccc(O)cc2)NC(=O)[C@H](CCC(=O)O)NC(=O)[C@H](CC(=O)O)NC(=O)CNC(=O)[C@H](CSCCC3=O)NC1=O
notes: scaffold TATA
B14: BCY16143 (peptide)
peptide: ACYLPD[Phe(4-CN)]LCGDEYCA-NH2
modifications: linker 2-9-14 via TATA; N-terminus assumed
SMILES: CC(C)C[C@@H]1NC(=O)[C@H](Cc2ccc(C#N)cc2)NC(=O)[C@H](CC(=O)O)NC(=O)[C@@H]2CCCN2C(=O)[C@H](CC(C)C)NC(=O)[C@H](Cc2ccc(O)cc2)NC(=O)[C@@H](NC(=O)[C@H](C)N)CSCCC(=O)N2CN3CN(C2)C(=O)CCSC[C@@H](C(=O)N[C@@H](C)C(N)=O)NC(=O)[C@H](Cc2ccc(O)cc2)NC(=O)[C@H](CCC(=O)O)NC(=O)[C@H](CC(=O)O)NC(=O)CNC(=O)[C@H](CSCCC3=O)NC1=O
notes: scaffold TATA
B15: BCY16142 (peptide)
peptide: ACYLPD[Phe(4-CF3)]LCGDEYCA-NH2
modifications: linker 2-9-14 via TATA; N-terminus assumed
SMILES: CC(C)C[C@@H]1NC(=O)[C@H](Cc2ccc(C(F)(F)F)cc2)NC(=O)[C@H](CC(=O)O)NC(=O)[C@@H]2CCCN2C(=O)[C@H](CC(C)C)NC(=O)[C@H](Cc2ccc(O)cc2)NC(=O)[C@@H](NC(=O)[C@H](C)N)CSCCC(=O)N2CN3CN(C2)C(=O)CCSC[C@@H](C(=O)N[C@@H](C)C(N)=O)NC(=O)[C@H](Cc2ccc(O)cc2)NC(=O)[C@H](CCC(=O)O)NC(=O)[C@H](CC(=O)O)NC(=O)CNC(=O)[C@H](CSCCC3=O)NC1=O
notes: scaffold TATA
B16: BCY14455 (peptide)
peptide: ACYLPDWLCGDEYCA-NH2
modifications: linker 2-9-14 via TATA; also: scaffold TATA, TATB or TBMT
notes: scaffold TATA
B17: BCY15650 (peptide)
peptide: ACYLPDYLC[dA]DEYCA-NH2
modifications: linker 2-9-14 via TATA; N-terminus assumed
SMILES: CC(C)C[C@@H]1NC(=O)[C@H](Cc2ccc(O)cc2)NC(=O)[C@H](CC(=O)O)NC(=O)[C@@H]2CCCN2C(=O)[C@H](CC(C)C)NC(=O)[C@H](Cc2ccc(O)cc2)NC(=O)[C@@H](NC(=O)[C@H](C)N)CSCCC(=O)N2CN3CN(C2)C(=O)CCSC[C@H](NC1=O)C(=O)N[C@H](C)C(=O)N[C@@H](CC(=O)O)C(=O)N[C@@H](CCC(=O)O)C(=O)N[C@@H](Cc1ccc(O)cc1)C(=O)N[C@H](C(=O)N[C@@H](C)C(N)=O)CSCCC3=O
notes: scaffold TATA
B18: BCY15656 (peptide)
peptide: ACYLPAYLCGDEYCA-NH2
modifications: linker 2-9-14 via TATA; also: cyclised with TATA, TATB or TBMT
notes: scaffold TATA
B19: BCY16133 (peptide)
peptide: Ac-CY[Cba]PDYLC[dA]DEYC-NH2
modifications: linker 1-8-13 via TATA
notes: scaffold TATA
B20: BCY15639 (peptide)
peptide: ACY[Cba]PDYLCGDEYCA-NH2
modifications: linker 2-9-14 via TATA; N-terminus assumed
SMILES: CC(C)C[C@@H]1NC(=O)[C@H](Cc2ccc(O)cc2)NC(=O)[C@H](CC(=O)O)NC(=O)[C@@H]2CCCN2C(=O)[C@H](CC2CCC2)NC(=O)[C@H](Cc2ccc(O)cc2)NC(=O)[C@@H](NC(=O)[C@H](C)N)CSCCC(=O)N2CN3CN(C2)C(=O)CCSC[C@@H](C(=O)N[C@@H](C)C(N)=O)NC(=O)[C@H](Cc2ccc(O)cc2)NC(=O)[C@H](CCC(=O)O)NC(=O)[C@H](CC(=O)O)NC(=O)CNC(=O)[C@H](CSCCC3=O)NC1=O
notes: scaffold TATA

Target: T1, human CD16a V176 variant, biotinylated (human, UniProt P08637 17-208, N-terminally biotinylated in-house)
T1 construct: supplier is told for the AlphaScreen assay only; also called V Variant; FcγRIIIA V variant
T1 sequence (P08637 other isoform, or with tags, fused parts or gaps mutant limits assumed): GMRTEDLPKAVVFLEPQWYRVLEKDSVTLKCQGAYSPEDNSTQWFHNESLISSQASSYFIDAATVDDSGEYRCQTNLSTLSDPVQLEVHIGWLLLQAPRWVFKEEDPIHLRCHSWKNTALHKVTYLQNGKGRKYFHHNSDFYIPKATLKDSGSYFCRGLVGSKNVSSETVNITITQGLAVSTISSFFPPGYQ
Test: SPR
Protocol: (§1) The SPR analysis was run at 25° C. at a flow rate of 50 μl/min with 60 seconds association and dissociation between 60 and 200 seconds. Data were corrected for DMSO excluded volume effects. All data were double-referenced for blank injections and reference surface using standard processing procedures and data processing and kinetic fitting were performed using Scrubber software, version 2.0c (BioLogic Software). Data were fitted using simple 1:1 binding model allowing for mass transport effects where appropriate.
(§2) For analysis of peptide binding, a Biacore 8k+ instrument was used with a CM5 chip (Cytiva). All experiments were carried out at 25° C. Streptavidin was immobilized on all flow cells by standard amine coupling chemistry. The running buffer was HBS-N(Cytiva, 10 mM HEPES, 0.15 M NaCl, pH 7.4) and the flow rate was 10 μl/min. The carboxymethyl dextran surface was activated with a 1:1 ratio of 0.4 M 1-ethyl-3-(3-dimethylaminopropyl) carbodiimide hydrochloride (EDC)/0.1 M N-hydroxy succinimide (NHS) (Cytiva) for 420s. Streptavidin (ProSpec, cat no. PRO-791) was diluted to 0.2 mg/ml in 10 mM sodium acetate pH 4.5 and was injected onto the chip surface for 600 s. Residual activated groups were blocked with a 420 s injection of 1 M ethanolamine (pH 8.5). The final surface density was 2000-3000 RU. Biotinylated CD16a was diluted to 5 μg/ml in HBS-N and was captured on flow cell 2 only of the streptavidin chip at a flow rate of 10 μl/min to 1500-2500 RU. The buffer was then changed to PBS-P+(Cytiva) supplemented with 0.5-2% DMSO. […] The flow rate was 30 μl/min with 100 s association and 400 s dissociation. Data were corrected for DMSO volume exclusion effects. All data were double-referenced against blank injections and reference surface response using standard processing procedures. Data processing and kinetic fitting was performed using Biacore Insight Evaluation Software with Extended Screening and Characterization Extension (Cytiva). Data were fitted using steady state affinity 1:1 binding model to determine KD. Data were fitted using kinetic 1:1 binding model to determine kinetic constants where appropriate.

| Kd | Binder |
| --- | --- |
| 5000 nM | B1 |
| 3230 nM | B2 |
| 1080 nM | B3 |
| 3220 nM | B4 |
| 1000 nM | B5 |
| 1430 nM | B6 |
| 4000 nM | B7 |

Target: T2, human CD16a F176 variant, biotinylated (human, UniProt P08637 17-208, C-terminally biotinylated)
T2 construct: supplier is told for the AlphaScreen assay only; also called F Variant; FcγRIIIA F variant
T2 sequence (P08637 17-208 limits assumed, change not shown): as the sequence (P08637 other isoform, or with tags, fused parts or gaps mutant limits assumed) above, with V160F counted along it
Test: SPR
Protocol: as §1, §2

| Kd | Binder |
| --- | --- |
| 4020 nM | B1 |
| 2150 nM | B8 |
| 2820 nM | B9 |
| 2980 nM | B3 |
| 2980 nM | B10 |
| 1600 nM | B11 |
| 1000 nM | B7 |

Target: T3, Human NKp46 His tag (Acro Biosystems, NC1-H52H4) (human, UniProt O76036 22-255)
T3 construct: bought; also called human NKp46-his tagged protein
T3 sequence (O76036 22-255 limits assumed): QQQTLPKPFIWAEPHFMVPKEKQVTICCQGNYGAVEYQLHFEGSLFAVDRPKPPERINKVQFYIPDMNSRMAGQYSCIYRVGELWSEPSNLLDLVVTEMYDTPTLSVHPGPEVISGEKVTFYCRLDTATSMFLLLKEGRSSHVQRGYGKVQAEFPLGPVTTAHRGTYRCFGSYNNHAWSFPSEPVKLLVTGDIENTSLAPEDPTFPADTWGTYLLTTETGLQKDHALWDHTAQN
Test: FP competition vs BCY15035
Protocol: The untagged competitor peptides were diluted in assay buffer 25 mM HEPES, 100 mM NaCl, 0.01% P20, pH 7.4. to a top concentration of 5000 nM and diluted 2-fold in 11 steps. The human NKp46-his tagged protein (AcroBiosystems) was diluted to 40 nM final concentration in the assay. […] The total volume of 25 μL was prepared in black walled and flat-bottomed low binding low volume 384 well plates. Measurements were performed using Envision (PerkinElmer) equipped with the excitation filter FITC FP 480, emission filter FITC FP P-pol 535 and 2nd emission filter FITC FP S-pol 535 and set to 30 flashes. The gain was set in a well containing tracer alone without target protein.

| Ki | Binder |
| --- | --- |
| 8 nM | B12 |
| 718 nM | B13 |
| 464 nM | B14 |
| 317 nM | B15 |
| 282 nM | B16 |
| 16 nM | B17 |
| 39 nM | B18 |
| 10 nM | B19 |
| 17 nM | B20 |

Target: T4, Human NKp46 Fc tag (Acro Biosystems, NC1-H5257) (human, UniProt O76036 22-255)
T4 construct: bought; also called Fc-tagged human NKp46
T4 sequence (O76036 22-255 limits assumed): as above
Test: SPR Method 1 and/or 2
Method in brief: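 Fc-tagged human NKp46 captured on anti-human IgG surface (500–1000 RU); compounds run in PBS-P+ with 2% DMSO at 25 °C, 50 μL/min, 60 s association, 400 s dissociation. Double-referenced, DMSO-corrected; KD from steady-state 1:1 fit, kinetic constants from kinetic 1:1 fit where appropriate.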

| Kd | Binder |
| --- | --- |
| 3.9 nM | B12 |
| 230 nM | B16 |
| 10 nM | B17 |
| 34 nM | B18 |
| 4.9 nM | B19 |
| 11 nM | B20 |
